# According to the supplement of paper PMC10567573:
# B1: MLL5 (parent)
# chain: HDDGYMICCDKCSVWQHIDCMGID
# Variants of: B1
# Assay: protein stability index of a GFP-peptide fusion (GPS, HEK-293T) (PSI 1-6); higher = more stable
# Conditions: c terminus: a fixed tail appended
# 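Note: lentivirally expressed fusions sorted by FACS into six bins by GFP to DsRed ratio, PSI derived from sequencing read proportions per bin multiplied by bin number.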
row,Variant,protein stability index
1,HDDGYMICCDKNSVWQHIDCMGID,3.05
2,HDDGYMICCDKASVWQHIDCMGID,2.71
3,HDDGYMICCDKDSVWQHIDCMGID,3.54
4,HDDGYMICCDKKSVWQHIDCMGID,3.46
5,HDDGYMICCDKESVWQHIDCMGID,3.63
6,HDDGYMICCDKFSVWQHIDCMGID,1.76
7,HDDGYKICCDKCSVWQHIDCMGID,2.43
8,HDDGYQICCDKCSVWQHIDCMGID,2.46
9,HDDGYSICCDKCSVWQHIDCMGID,2.91
10,HDDGYNICCDKCSVWQHIDCMGID,3.14
11,HDDGYWICCDKCSVWQHIDCMGID,2
12,HDDGYAICCDKCSVWQHIDCMGID,3.37
13,HDDGYGICCDKCSVWQHIDCMGID,2.4
14,HDIGYMICCDKCSVWQHIDCMGID,1.63
15,HDMGYMICCDKCSVWQHIDCMGID,1.69
16,HDHGYMICCDKCSVWQHIDCMGID,2.01
17,HDSGYMICCDKCSVWQHIDCMGID,1.69
18,HDYGYMICCDKCSVWQHIDCMGID,1.91
19,HDRGYMICCDKCSVWQHIDCMGID,2.02
20,HDCGYMICCDKCSVWQHIDCMGID,2.06
21,HDEGYMICCDKCSVWQHIDCMGID,2.95
22,HDWGYMICCDKCSVWQHIDCMGID,1.88
23,HDDGYMICCDKCSVWIHIDCMGID,1.77
24,HDDGYMICCDKCSVWMHIDCMGID,2.65

row,Variant,protein stability index
1,HDDGYMICCDKCSVWPHIDCMGID,3.15
2,HDDGYMICCDKCSVWHHIDCMGID,2.48
3,HDDGYMICCDKCSVWTHIDCMGID,1.69
4,HDDGYMICCDKCSVWSHIDCMGID,1.93
5,HDDGYMICCDKCSVWGHIDCMGID,2.71
6,HDDGYMICCDKCSVWEHIDCMGID,2.6
7,HDDGYMICCDKCSVWWHIDCMGID,1.61
8,HDDGYMICCCKCSVWQHIDCMGID,2.71
9,HDDGYMICCMKCSVWQHIDCMGID,2.95
10,HDDGYMICCNKCSVWQHIDCMGID,2.41
11,HDDGYMICCGKCSVWQHIDCMGID,1.92
12,HDDGYMICCQKCSVWQHIDCMGID,2.29
13,HDDGYMICCIKCSVWQHIDCMGID,3.54
14,HDDGYMICCEKCSVWQHIDCMGID,2.41
15,HDDGYMICCYKCSVWQHIDCMGID,2.88
16,HDDGYMICCVKCSVWQHIDCMGID,3.07
17,HDDGYMICCRKCSVWQHIDCMGID,2.4
18,HDDGYMICCDKCSVCQHIDCMGID,3.49
19,HDDGYMICCDKCSVQQHIDCMGID,3.63
20,HDDGYMICCDKCSVEQHIDCMGID,4.13
21,HDDGYMICCDKCSVSQHIDCMGID,3.69
22,HDDGYMICCDKCSVDQHIDCMGID,4.24
23,HDDGYMICCDKCSVFQHIDCMGID,3.11
24,HDDGYMICCDKCSEWQHIDCMGID,3.73

row,Variant,protein stability index
1,HDDGYMICCDKCSWWQHIDCMGID,2.11
2,HDDGYMICCDKCSIWQHIDCMGID,2.57
3,HDDGYMICCDKCSMWQHIDCMGID,2.06
4,HDDGYMICCDKCSNWQHIDCMGID,3.05
5,HDDGYMICCDKCSKWQHIDCMGID,3.22
6,HDDGYMICCDKCSYWQHIDCMGID,2.12
7,HDDGYMICCDKCSSWQHIDCMGID,2.77
8,HDDGYMICCDKCSAWQHIDCMGID,2.41
9,HDDGYMICCDKCSGWQHIDCMGID,2.94
10,HDDGYMICCDKCSQWQHIDCMGID,2.83
11,HDDGYMICCDKCSVWQKIDCMGID,1.52
12,HDDGYMICCDKCSVWQSIDCMGID,2.48
13,HDDGYMICCDKCSVWQGIDCMGID,2.72
14,HDDGYMICCDKCSVWQIIDCMGID,1.34
15,HDDGYMICCDKCSVWQMIDCMGID,2.82
16,HDDGYMICCDKCSVWQRIDCMGID,1.95
17,HDDGYMITCDKCSVWQHIDCMGID,2.66
18,HDDGYMIECDKCSVWQHIDCMGID,2.73
19,HDDGYMIPCDKCSVWQHIDCMGID,3.12
20,HDDGYMIHCDKCSVWQHIDCMGID,2.37
21,HDDGYMINCDKCSVWQHIDCMGID,2.43
22,HDDGYMISCDKCSVWQHIDCMGID,1.83
23,HDDGYMIKCDKCSVWQHIDCMGID,2.25
24,HDDGYMIVCDKCSVWQHIDCMGID,1.64

row,Variant,protein stability index
1,HDDGYMIFCDKCSVWQHIDCMGID,1.56
2,DDDGYMICCDKCSVWQHIDCMGID,2.83
3,GDDGYMICCDKCSVWQHIDCMGID,2.25
4,FDDGYMICCDKCSVWQHIDCMGID,1.66
5,EDDGYMICCDKCSVWQHIDCMGID,2.5
6,WDDGYMICCDKCSVWQHIDCMGID,2.63
7,IDDGYMICCDKCSVWQHIDCMGID,1.98
8,SDDGYMICCDKCSVWQHIDCMGID,2.81
9,HDDGYMICCDKCSVWQHWDCMGID,2.38
10,HDDGYMICCDKCSVWQHCDCMGID,3.93
11,HDDGYMICCDKCSVWQHSDCMGID,3.06
12,HDDGYMICCDKCSVWQHGDCMGID,3.5
13,HDDGYMICCDKCSVWQHEDCMGID,3.5
14,HDDGYMICCDKCSVWQHVDCMGID,1.99
15,HDDGYMICCDKCSVWQHIDQMGID,2.02
16,HDDGYMICCDKCSVWQHIDHMGID,2.12
17,HDDGYMICCDKCSVWQHIDDMGID,2.58
18,HDDGYMICCDKCSVWQHIDNMGID,2.81
19,HDDGYMICCDKCSVWQHIDWMGID,2.15
20,HDDGYMICCDKCSVWQHIDMMGID,1.79
21,HDDGYMICCDKCSVWQHIDTMGID,2.22
22,HDDGYMICCDKCSVWQHIDRMGID,1.97
